Key:
[1] = target: T1, biotinylated-BCMA protein (UniProt Q02223 1-54, limits assumed, biotinylated (site not stated)); assay: BLI (Octet), biotinylated BCMA on streptavidin sensor, bispecific in solution, 1:1 model
T1 construct: also called recombinant BCMA antigen; recombinant biotinylated BCMA
T1 sequence (looked up): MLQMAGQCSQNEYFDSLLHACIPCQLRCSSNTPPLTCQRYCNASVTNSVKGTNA

[2] = target: T2, Human CD3E-CD3D Heterodimer Protein (Acro Biosystems) (human, UniProt P07766 23-126; P04234 22-105); assay: BLI (Octet), bispecific on anti-human Fc sensor, CD3 in solution, 2:1 heterogeneous ligand model, ka
T2 construct: also called recombinant CD3 antigen (human CD3 epsilon and CD3 delta heterodimer protein, Acro Biosystems); Recombinant CD3E/D heterodimer protein
T2 sequence (P07766 23-126 limits assumed, chain 1 of 2): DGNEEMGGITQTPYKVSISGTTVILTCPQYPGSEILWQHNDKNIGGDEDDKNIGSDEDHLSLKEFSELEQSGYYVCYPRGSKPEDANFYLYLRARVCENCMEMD
T2 sequence (P04234 22-105 limits assumed, chain 2 of 2): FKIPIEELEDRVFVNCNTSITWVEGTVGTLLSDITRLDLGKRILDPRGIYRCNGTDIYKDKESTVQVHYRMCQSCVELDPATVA
Method: (§1) To evaluate CD3 binding, anti-human IgG Fc (AHC) capture biosensors (Sartorius) were loaded with 3 ug/mL bispecific sample of interest in PBS. After loading sensor tips were washed in 1×DPBS+0.02% Tween 20+1 mg/mL Bovine Serum Albumin (BSA) for blocking. […] Association was monitored for 1800 s and dissociation for 900 s, respectively. All measurements were performed at 30° C. with agitation at 1,200 rpm. Sensorgrams were referenced for buffer effects and then analyzed using the FORTEBIO Data Analysis HT Software (V. 12.0.1.55). Kinetic responses were baseline subtracted, aligned and globally fit using a 1:1 fitting model or 2:1 heterogeneous ligand binding model to obtain values for association (Kon), dissociation (Koff) rate constants and the equilibrium dissociation constants (KD).
(§2) Recombinant CD3E/D heterodimer protein was used to assess binding of the scFv/spFv anti-CD3 arms.

[3] = target: T2, Human CD3E-CD3D Heterodimer Protein …; assay: BLI (Octet), bispecific on anti-human Fc sensor, CD3 in solution, 2:1 heterogeneous ligand model, ka2
Method: as §1, §2

[4] = target: T1, biotinylated-BCMA protein; assay: ELISA, chemiluminescence: biotinylated recombinant BCMA on streptavidin plates, detection with goat anti-human IgG F(ab')2 HRP
Method: Bispecific antibodies were analyzed for binding to either recombinant biotinylated BCMA or recombinant biotinylated CD3 antigen (human CD3 epsilon and CD3 delta heterodimer protein, Acro Biosystems). ELISAs were carried out according to standard protocols and plates were washed three time with TBS containing 0.05% Tween 20 (TBS-T) between each incubation step. Ninety-six-well MAXISORP plates (Nunc) were coated with 1 ug/mL of Streptavidin, diluted in 1×dPBS for 18 hours at 4° C. All plates were coated with 20 nM of antigen of interest for 1 hour at room temperature and then blocked with 3% BSA in PBS-T (1×dPBs with 0.05% tween 20) for 1 hour at room temperature. After blocking, plates were incubated with serial dilution of purified bispecific samples in PBS-T for 1 h at RT, and were then incubated with goat anti-human IgG F(ab′2)2 HRP (Jackson ImmunoResearch) for 1 hour at room temperature. After washing, BM Chemilluminesence ELISA Substrate (POD) was added (Millipore) and plates were immediately read on an ENVISION plate reader (Perkin Elmer) using ultrasensitive illuminesence. […] PRISM, where curves were generated and analyzed with a nonlinear regression curve fit.

[5] = target: T2, Human CD3E-CD3D Heterodimer Protein …; assay: BLI (Octet), bispecific on anti-human Fc sensor, CD3 in solution, 2:1 heterogeneous ligand model, KD1
Method: as §1, §2

[6] = target: T2, Human CD3E-CD3D Heterodimer Protein …; assay: BLI (Octet), bispecific on anti-human Fc sensor, CD3 in solution, 2:1 heterogeneous ligand model, kdis
Method: as §1, §2

[7] = target: T2, Human CD3E-CD3D Heterodimer Protein …; assay: BLI (Octet), bispecific on anti-human Fc sensor, CD3 in solution, 2:1 heterogeneous ligand model, KD2
Method: as §1, §2

[8] = target: T2, Human CD3E-CD3D Heterodimer Protein …; assay: BLI (Octet), bispecific on anti-human Fc sensor, CD3 in solution, 2:1 heterogeneous ligand model, kdis2
Method: as §1, §2

Binder	Kd [1] [nM]	koff [1] [s⁻¹]	kon [1] [M⁻¹ s⁻¹]	kon [2] [M⁻¹ s⁻¹]	kon [3] [M⁻¹ s⁻¹]	EC50 (read off the curve) [4] [nM]	Kd [5] [nM]	koff [6] [s⁻¹]	Kd [7] [nM]	koff [8] [s⁻¹]
TD01B46 (bispecific antibody, human IgG1, kappa, L234A L235A, Stapled bispecific from the large-scale batch; also called BCMB749 × Cris7b spFv) light: DIVMTQSQKFMSTTVGDRVSITCKASQNVGTAVAWYQQKPGQSPKLLIYSASNRYTGVPDRFTGTGSGTDFTLTIINVQSEDLADYFCQQYGSSPWTFGGGTKLEIKRTVAAPSVFIFPPSDEQLKSGTASVVCLLNNFYPREAKVQWKVDNALQSGNSQESVTEQDSKDSTYSLSSTLTLSKADYEKHKVYACEVTHQGLSSPVTKSFNRGEC heavy: QVQLQQSGAELVKPGASVKLSCKASGYTFTNNVMHWVRQKPGQGLEWIGYILPYNDGTKYNEKFKGKATLTSDKSSSTAYMELSSLTSEDSAVYYCARYDYDGYFDYWGQGTTLTVSSASTKGPSVFPLAPSSKSTSGGTAALGCLVKDYFPEPVTVSWNSGALTSGVHTFPAVLQSSGLYSLSSVVTVPSSSLGTQTYICNVNHKPSNTKVDKKVEPKSCDKTHTCPPCPAPEAAGGPSVFLFPPKPKDTLMISRTPEVTCVVVSVSHEDPEVKFNWYVDGVEVHNAKTKPREEQYNSTYRVVSVLTVLHQDWLNGKEYKCKVSNKALPAPIEKTISKAKGQPREPQVYTLPPSREEMTKNQVSLSCAVKGFYPSDIAVEWESNGQPENNYKTTPPVLDSDGSFFLVSKLTVDKSRWQQGNVFSCSVMHEALHNRFTQKSLSLSPGK not shown	5.43	0.00142	261000	158000	15600	~2	0.0222	3.49e-06	2.99	4.65e-05
TD01B49 (bispecific antibody, human IgG1, kappa, L234A L235A, also called BCMB749 × Cris7b scFv Bird) light: DIVMTQSQKFMSTTVGDRVSITCKASQNVGTAVAWYQQKPGQSPKLLIYSASNRYTGVPDRFTGTGSGTDFTLTIINVQSEDLADYFCQQYGSSPWTFGGGTKLEIKRTVAAPSVFIFPPSDEQLKSGTASVVCLLNNFYPREAKVQWKVDNALQSGNSQESVTEQDSKDSTYSLSSTLTLSKADYEKHKVYACEVTHQGLSSPVTKSFNRGEC heavy: QVQLQQSGAELVKPGASVKLSCKASGYTFTNNVMHWVRQKPGQGLEWIGYILPYNDGTKYNEKFKGKATLTSDKSSSTAYMELSSLTSEDSAVYYCARYDYDGYFDYWGQGTTLTVSSASTKGPSVFPLAPSSKSTSGGTAALGCLVKDYFPEPVTVSWNSGALTSGVHTFPAVLQSSGLYSLSSVVTVPSSSLGTQTYICNVNHKPSNTKVDKKVEPKSCDKTHTCPPCPAPEAAGGPSVFLFPPKPKDTLMISRTPEVTCVVVSVSHEDPEVKFNWYVDGVEVHNAKTKPREEQYNSTYRVVSVLTVLHQDWLNGKEYKCKVSNKALPAPIEKTISKAKGQPREPQVYTLPPSREEMTKNQVSLSCAVKGFYPSDIAVEWESNGQPENNYKTTPPVLDSDGSFFLVSKLTVDKSRWQQGNVFSCSVMHEALHNRFTQKSLSLSPGK not shown	4.02	0.00145	362000	160000	16400	~2	0.127	2.04e-05	3.42	5.61e-05

Reference: patent publication US20250320304A1 (Janssen / Centocor, published 2025)
